What was measured:
HeLa Kyoto [1] = assay: solubility in G1/S (NP-40 vs SDS abundance) (log2 ratio); higher = more soluble; settings: cell cycle stage: G1/S
HeLa Kyoto [2] = assay: melting temperature (median over replicates), in situ; higher = more thermally stable
HeLa Kyoto [3] = assay: solubility change mitosis vs G1/S (difference of NP-40 vs SDS log2 ratios) (log2 ratio difference); higher = more soluble in mitosis
HeLa Kyoto [4] = assay: thermal stability score vs G1/S (z-score of summed log2 fold changes over temperatures); higher = more thermally stable than in G1/S
[5] = cell cycle stage: early G1 (4.5 h after nocodazole release)
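Wherever melting temperature (median over replicates), in situ is given: HeLa Kyoto cells synchronized by double thymidine or nocodazole block, proteins quantified by TMT10plex mass spectrometry, three independent biological replicates.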
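Wherever solubility change mitosis vs G1/S (difference of NP-40 vs SDS log2 ratios) is given: synchronized HeLa Kyoto cells (double thymidine block for G1/S, nocodazole release for mitosis), protein amounts in NP-40 versus SDS lysates quantified by mass spectrometry, three biological replicates.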
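Wherever solubility in G1/S (NP-40 vs SDS abundance) is given: HeLa Kyoto cells arrested at G1/S by double thymidine block, proteins quantified by TMT10plex mass spectrometry in mild NP-40 versus SDS extracts, three biological replicates.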
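Wherever thermal stability score vs G1/S (z-score of summed log2 fold changes over temperatures) is given: synchronized HeLa Kyoto cells, proteins quantified by TMT10plex mass spectrometry, three biological replicates, mitosis taken 0.5 h after nocodazole release, G1/S directly after double thymidine block.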

For “MRKVVLITGASSGIGLALCKRLLAEDDELHLCLACRNMSKAEAVCAALLASHPTAEVTIVQVDVSNLQSVFRASKELKQRFQRLDCIYLNAGIMPNPQLNIKALFFGLFSRKVIHMFSTAEGLLTQGDKITADGLQEVFETNVFGHFILIRELEPLLCHSDNPSQLIWTSSRSARKSNFSLEDFQHSKGKEPYSSSKYATDLLSVALNRNFNQQGLYSNVACPGTALTNLTYGILPPFIWTLLMPAILLLRFFANAFTLTPYNGTEALVWLFHQKPESLNPLIKYLSATTGFGRNYIMTQKMDLDEDTAEKFYQKLLELEKHIRVTIQKTDNQARLSGSCL [HSD17B7]”, the “solubility in G1/S (log2)” value (HeLa Kyoto [1]) was -0.113, the melting temperature (HeLa Kyoto [2]; cell cycle stage: G1/S) was 52.8 °C and the melting temperature (HeLa Kyoto [2]; cell cycle stage: mitosis) was 51 °C. The “solubility change mitosis (log2)” value (HeLa Kyoto [3]) was -0.161, the thermal stability score (HeLa Kyoto [4]; [5]) was -1.29 and the thermal stability score (HeLa Kyoto [4]; cell cycle stage: mitosis) was -0.53.
For “MRLALLWALGLLGAGSPLPSWPLPNIGGTEEQQAESEKAPREPLEPQVLQDDLPISLKKVLQTSLPEPLRIKLELDGDSHILELLQNRELVPGRPTLVWYQPDGTRVVSEGHTLENCCYQGRVRGYAGSWVSICTCSGLRGLVVLTPERSYTLEQGPGDLQGPPIISRIQDLHLPGHTCALSWRESVHTQKPPEHPLGQRHIRRRRDVVTETKTVELVIVADHSEAQKYRDFQHLLNRTLEVALLLDTFFRPLNVRVALVGLEAWTQRDLVEISPNPAVTLENFLHWRRAHLLPRLPHDSAQLVTGTSFSGPTVGMAIQNSICSPDFSGGVNMDHSTSILGVASSIAHELGHSLGLDHDLPGNSCPCPGPAPAKTCIMEASTDFLPGLNFSNCSRRALEKALLDGMGSCLFERLPSLPPMAAFCGNMFVEPGEQCDCGFLDDCVDPCCDSLTCQLRPGAQCASDGPCCQNCQLRPSGWQCRPTRGDCDLPEFCPGDSSQCPPDVSLGDGEPCAGGQAVCMHGRCASYAQQCQSLWGPGAQPAAPLCLQTANTRGNAFGSCGRNPSGSYVSCTPRDAICGQLQCQTGRTQPLLGSIRDLLWETIDVNGTELNCSWVHLDLGSDVAQPLLTLPGTACGPGLVCIDHRCQRVDLLGAQECRSKCHGHGVCDSNRHCYCEEGWAPPDCTTQLKATSSLTTGLLLSLLVLLVLVMLGASYWYRARLHQRLCQLKGPTCQYRAAQSGPSERPGPPQRALLARGTKQASALSFPAPPSRPLPPDPVSKRLQAELADRPNPPTRPLPADPVVRSPKSQGPAKPPPPRKPLPADPQGRCPSGDLPGPGAGIPPLVVPSRPAPPPPTVSSLYL [ADAM15]”, the “solubility in G1/S (log2)” value (HeLa Kyoto [1]) was 0.293, the melting temperature (HeLa Kyoto [2]; cell cycle stage: G1/S) was 54.2 °C and the melting temperature (HeLa Kyoto [2]; cell cycle stage: mitosis) was 55.4 °C. The “solubility change mitosis (log2)” value (HeLa Kyoto [3]) was -0.0652, the thermal stability score (HeLa Kyoto [4]; [5]) was 0.908 and the thermal stability score (HeLa Kyoto [4]; cell cycle stage: mitosis) was 2.18.
With “MRLRRLALFPGVALLLAAARLAAASDVLELTDDNFESRISDTGSAGLMLVEFFAPWCGHCKRLAPEYEAAATRLKGIVPLAKVDCTANTNTCNKYGVSGYPTLKIFRDGEEAGAYDGPRTADGIVSHLKKQAGPASVPLRTEEEFKKFISDKDASIVGFFDDSFSEAHSEFLKAASNLRDNYRFAHTNVESLVNEYDDNGEGIILFRPSHLTNKFEDKTVAYTEQKMTSGKIKKFIQENIFGICPHMTEDNKDLIQGKDLLIAYYDVDYEKNAKGSNYWRNRVMMVAKKFLDAGHKLNFAVASRKTFSHELSDFGLESTAGEIPVVAIRTAKGEKFVMQEEFSRDGKALERFLQDYFDGNLKRYLKSEPIPESNDGPVKVVVAENFDEIVNNENKDVLIEFYAPWCGHCKNLEPKYKELGEKLSKDPNIVIAKMDATANDVPSPYEVRGFPTIYFSPANKKLNPKKYEGGRELSDFISYLQREATNPPVIQEEKPKKKKKAQEDL [PDIA3]” the “solubility in G1/S (log2)” value (HeLa Kyoto [1]) was 0.299, the melting temperature (HeLa Kyoto [2]; cell cycle stage: G1/S) was 53.3 °C and the melting temperature (HeLa Kyoto [2]; cell cycle stage: mitosis) was 53.7 °C. The “solubility change mitosis (log2)” value (HeLa Kyoto [3]) was 0.000907, the thermal stability score (HeLa Kyoto [4]; [5]) was 4.82 and the thermal stability score (HeLa Kyoto [4]; cell cycle stage: mitosis) was 4.63.
With “MRLSSLLALLRPALPLILGLSLGCSLSLLRVSWIQGEGEDPCVEAVGERGGPQNPDSRARLDQSDEDFKPRIVPYYRDPNKPYKKVLRTRYIQTELGSRERLLVAVLTSRATLSTLAVAVNRTVAHHFPRLLYFTGQRGARAPAGMQVVSHGDERPAWLMSETLRHLHTHFGADYDWFFIMQDDTYVQAPRLAALAGHLSINQDLYLGRAEEFIGAGEQARYCHGGFGYLLSRSLLLRLRPHLDGCRGDILSARPDEWLGRCLIDSLGVGCVSQHQGQQYRSFELAKNRDPEKEGSSAFLSAFAVHPVSEGTLMYRLHKRFSALELERAYSEIEQLQAQIRNLTVLTPEGEAGLSWPVGLPAPFTPHSRFEVLGWDYFTEQHTFSCADGAPKCPLQGASRADVGDALETALEQLNRRYQPRLRFQKQRLLNGYRRFDPARGMEYTLDLLLECVTQRGHRRALARRVSLLRPLSRVEILPMPYVTEATRVQLVLPLLVAEAAAAPAFLEAFAANVLEPREHALLTLLLVYGPREGGRGAPDPFLGVKAAAAELERRYPGTRLAWLAVRAEAPSQVRLMDVVSKKHPVDTLFFLTTVWTRPGPEVLNRCRMNAISGWQAFFPVHFQEFNPALSPQRSPPGPPGAGPDPPSPPGADPSRGAPIGGRFDRQASAEGCFYNADYLAARARLAGELAGQEEEEALEGLEVMDVFLRFSGLHLFRAVEPGLVQKFSLRDCSPRLSEELYHRCRLSNLEGLGGRAQLAMALFEQEQANST [CHPF2]” the “solubility in G1/S (log2)” value (HeLa Kyoto [1]) was -0.00882, the melting temperature (HeLa Kyoto [2]; cell cycle stage: G1/S) was 53.4 °C and the melting temperature (HeLa Kyoto [2]; cell cycle stage: mitosis) was 53 °C. The “solubility change mitosis (log2)” value (HeLa Kyoto [3]) was -0.00799, the thermal stability score (HeLa Kyoto [4]; [5]) was -0.504 and the thermal stability score (HeLa Kyoto [4]; cell cycle stage: mitosis) was -0.497.
